Measured values published in doi:10.1101/2020.10.21.349050.
Read-outs that look alike come from different tables or passages of the source.

T1: GST-Swi6 (Schizosaccharomyces pombe, UniProt P40381 1-328)
T1 sequence: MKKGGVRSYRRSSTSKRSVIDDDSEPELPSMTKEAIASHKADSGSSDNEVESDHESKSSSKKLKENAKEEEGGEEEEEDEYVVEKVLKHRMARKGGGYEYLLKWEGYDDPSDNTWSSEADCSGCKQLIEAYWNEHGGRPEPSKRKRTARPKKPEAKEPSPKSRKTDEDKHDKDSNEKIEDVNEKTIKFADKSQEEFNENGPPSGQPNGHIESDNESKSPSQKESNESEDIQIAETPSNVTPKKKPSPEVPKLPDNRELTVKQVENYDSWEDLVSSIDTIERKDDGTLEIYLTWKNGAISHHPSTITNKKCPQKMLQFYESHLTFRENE

T2: GST-Swi6 3K->3A (Schizosaccharomyces pombe, UniProt P40381 1-328, K242A;K243A;K244A)
T2 sequence: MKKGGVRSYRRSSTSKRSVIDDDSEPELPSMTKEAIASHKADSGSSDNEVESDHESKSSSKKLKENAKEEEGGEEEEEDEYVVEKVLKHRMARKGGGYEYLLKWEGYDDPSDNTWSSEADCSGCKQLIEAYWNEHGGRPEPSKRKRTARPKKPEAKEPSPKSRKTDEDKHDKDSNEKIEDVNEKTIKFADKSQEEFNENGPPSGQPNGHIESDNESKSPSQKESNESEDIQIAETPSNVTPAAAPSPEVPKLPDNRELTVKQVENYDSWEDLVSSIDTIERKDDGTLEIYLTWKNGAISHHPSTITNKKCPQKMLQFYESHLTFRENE


Key:
Experiment in all cases: EMSA
GST-Swi6 [1] = molecular target: T1, GST-Swi6
GST-Swi6 3K->3A = molecular target: T2, GST-Swi6 3K->3A
GST-Swi6 [2] = molecular target: T1, GST-Swi6; remark: listed apart in the source
GST-Swi6 [3] = molecular target: T1, GST-Swi6; remark: listed apart in the source
GST-Swi6 [4] = molecular target: T1, GST-Swi6; remark: listed apart in the source
GST-Swi6 [5] = molecular target: T1, GST-Swi6; remark: listed apart in the source

Binder	Kd (GST-Swi6 [2]) [nM]	Kd (GST-Swi6 [4]) [nM]	also measured
ACAAGUGAUAAGAGUAGGUGU (ssRNA) [E-For RNA]	–	–	Kd (GST-Swi6 [1]): 2150 ± 100 nM
D-For RNA-DNA hybrid (DNA:RNA) RNA: UGGAUUAAGGAGAAGCGGUA DNA: TACCGCTTCTCCTTAATCCA	80	730	binding result (GST-Swi6 3K->3A): no binding; Kd (GST-Swi6 [3]): 90 nM
UACCGCUUCUCCUUAAUCCA (ssRNA) [D-Rev RNA]	–	–	binding result (GST-Swi6 [5]): no binding
UGGAUUAAGGAGAAGCGGUA (ssRNA) [D-For RNA]	2450	1790	–
